From patent US20210009673A1, “METHODS FOR REGULATING BREAST CANCERS” (priority 2018, published 2021)

Assays:
EGFR = test: tyrosine phosphorylation of EGFR in HUVS cells; format: cell-based, human
Procedure: FIG. 10: FIG. 10 illustrates: (A), HUVS cells were stimulated with PTN for 2, 5, and 15 minutes. Cell lysates were used to immunoprecipitate EGFR and the immunoprecipitates were analyzed in Western blots probed with anti-phosphotyrosine antibodies. In (B), Lysates from PTN-stimulated HUVS cells that express EGFR were incubated with GST-RPTPβ/ζ D1, GST-RPTPβ/ζ D1 (C1932S), and GST-RPTPβ/ζ D1 (D1900A), a “substrate trap” mutant, which captures the substrate phosphoryl-intermediate in the active site of RPTPβ/ζ with high affinity and specificity. The proteins captured were analyzed in Western blots probed with anti-EGFR antibodies and separately with anti-GST antibodies. In (C), HUVS cells were co-transfected with a full-length EGFR and the vector pC4-Fv1E encoding the Fv domain of FKBP12 needed for enforced dimerization induced by AP20187 (Clackson, Yang et al. 1998) in frame with the intracellular domain of RPTPβ/ζ. AP20187 (2 μM) enforced homodimerization of RPTPβ/ζ and stimulated increase in tyrosine phosphorylation of EGFR 2′, 5′, 10′, and 20′ after stimulation compared with control cells transfected with EGFR alone. (D) A retroviral vector (pSM2) encoding shRNA to “knock down” RPTPβ/ζ was tested in HUVS cells that express endogenous RPTPβ/ζ and EGFR. The cells were stimulated with PTN and cell lysates were used to prepare immunoprecipitates with anti-EGFR antibodies and the immunoprecipitates analyzed in Western blots probed with anti-phosphotyrosine antibodies.
Cell lysates prepared in a lysis buffer containing 50 mM Tris, 150 mM NaCl pH 7.5, 1% NP40, 0.25% sodium deoxycholate, 0.1% SDS, Complete EDTA-free Protease Inhibitor Cocktail (Roche, Indianapolis, Ind.), and 2 mM sodium orthovanadate were pre-cleared by incubation with 2 μg antibodies followed by one hour incubation with protein G-agarose beads. The beads were washed 4 times in the same lysis buffer, eluted in loading buffer containing 240 mM Tris pH 6.8, 40% glycerol, 20% SDS, 2.5% β-mercaptoethanol and 0.01% bromophenol blue and analyzed in Western blots probed with different antibodies as individually described.
PI3K also is activated by an activated Epidermal Growth Factor Receptor (EGFR). We therefore investigated the possibility EGFR is implicated in the translocation of β-catenin to nucleus in PTN-stimulated cells. HUVS were stimulated with PTN for 2, 5, and 15 minutes. Lysates from these cells were immunoprecipitated with anti-EGFR antibodies and the immunoprecipitates were analyzed in Western blots probed with anti-phosphotyrosine antibodies. Tyrosine phosphorylation of EGFR was increased about 5.8-fold at two minutes after HUVS cells were stimulated with PTN, about 11-fold at 5 minutes, and about 5-fold 15 minutes after stimulation with PTN (FIG. 10A).
To establish whether phosphorylation of EGFR is dependent on enforced dimerization of RPTPβ/ζ, which is the consequence of the interaction of PTN with RPTPβ/ζ, HUVS cells were then co-transfected with a full-length EGFR and the vector pC4-Fv1 E. The vector pC4-Fv1 E encodes the Fv domain of FKBP12 in frame with the intracellular domain of RPTPβ/ζ; it effectively enforces dimerization of RPTPβ/ζ when cells are stimulated with AP20187. AP20187 (2 μM) was added to HUVS cells that expressed full-length EGFR and pC4-Fv1 E as above. […]

GSK3β = test: phosphorylation of GSK3β serine 9 in PTN-stimulated HUVS cells; format: cell-based, human; conditions: 5, 10 and 20 minutes after PTN
Procedure: FIG. 11: FIG. 11 illustrates: human umbilical vein stromal cells not stimulated or stimulated with 50 ng/ml of PTN for 2, 5, 10 or 20 minutes were used to prepare cell lysates that were analyzed in Western blots probed with anti-phospho threonine 308 Akt (panel A), anti-phospho serine 473 Akt (panel B), anti-phospho-serine 9 GSK3β (panel C), anti-phospho-serine 33, 37 and […] β-catenin (panel D) or anti-actin antibodies (panel E). Akt was immunoprecipitated from those lysates using anti-Akt antibodies, incubated with a fusion peptide containing the 20 N-terminal amino acids of GSK3β and analyzed in Western-blots probed using anti-phospho-serine 9 GSK3β antibodies (panel F).
Lysates from HUVS cells stimulated with PTN as above were then analyzed in Western blots probed with anti-phosphoserine 9 GSK3β antibodies. GSK3β is known to be phosphorylated by Akt at serine 9 and to inactivate its catalytic activity. […]
The association of adaptor proteins that associate with specific phosphorylated sites in activated EGFR are responsible for the activation of phosphatidyl-inositol 3-kinase (PI3K). […] The cells were stimulated with PTN for 2, 5, 10, and 20 minutes, cell lysates were prepared, and the lysates were analyzed in Western blots probed with anti-phospho-Akt (Ser473), anti-phospho-GSKβ (Ser9), and anti-phospho-β-catenin (Thr42) antibodies. […]

B1: pleiotrophin (protein, UniProt P21246 33-168, looked up)
Pleiotrophin: GKKEKPEKKVKKSDCGEWQWSVCVPTSGDCGLGTREGTRTGAECKQTMKTQRCKIPCNWKKQFGAECKYQFQAWGECDLNTALKTRTGSLKRALHNAECQKTVTISKPCGKLTKPKPQAESKKKKKEGKKQEKMLD
increase in tyrosine phosphorylation of EGFR (EGFR; 5 minutes after PTN): about 11 fold
increase in tyrosine phosphorylation of EGFR (EGFR; 15 minutes after PTN): about 5 fold
tyrosine phosphorylation of EGFR (EGFR; RPTPβ/ζ knocked down with shRNA): failed to stimulate
increase in tyrosine phosphorylation of EGFR (EGFR; cells transfected with pSM2 control vector): ~5 fold
increase in tyrosine phosphorylation of EGFR (EGFR; two minutes after PTN): about 5.8 fold
GSK3β serine 9 phosphorylation (GSK3β): striking increase
